# Results from US20250250357A1.
# B1: Tab020 (YP223, rabbitIgG1) (antibody, V domains shown)
# VH: QEQLEESGGDLVQPEGSLTLTCKASGLDFSSSYWICWVRQAPGKGLEWIGCRHTFTANTWSASWVNGRFTISRSTSLGTVDLKMTSLTAADTATYFCARDESNNDGWDFKLWGPGTLVTVSS
# VL: AYDMTQTPASVSAAVGGTVTIKCQASQSISNYLAWYQQKPGQPPKLLIYQASTLAPGVSSRFKGSGSGTEFTLTISGVECADAATYYCQQGYTSSNVENVFGGGTGVVVGD
# Columns and labels:
# [1] = molecular target: monkey MSLN full-length protein (NCBI: XP_028696439.1) on HEK293T cells (monkey); experiment: FACS on HEK293T-monkey MSLN cells; antibody 4 nM
# [2] = molecular target: human MSLN full-length protein (NCBI: AAH09272.1) on stably transfected CHO-K1 or HEK293T cells (human) (UniProt Q13421); experiment: FACS on CHO-K1-hMSLN-2C8 cells; antibody 4 nM
# [3] = molecular target: human MSLN full-length protein (NCBI: AAH09272.1) on stably transfected CHO-K1 or HEK293T cells (human) (UniProt Q13421); experiment: FACS on CHO-K1-hMSLN-2C8 cells; antibody 0.8 nM
# [4] = molecular target: monkey MSLN full-length protein (NCBI: XP_028696439.1) on HEK293T cells (monkey); experiment: FACS on HEK293T-monkey MSLN cells; antibody 0.00128 nM
# [5] = molecular target: monkey MSLN full-length protein (NCBI: XP_028696439.1) on HEK293T cells (monkey); experiment: FACS on HEK293T-monkey MSLN cells; antibody 0.8 nM
# [6] = molecular target: human MSLN full-length protein (NCBI: AAH09272.1) on stably transfected CHO-K1 or HEK293T cells (human) (UniProt Q13421); experiment: FACS on CHO-K1-hMSLN-2C5 cells; secondary antibody control 37
# [7] = molecular target: human MSLN full-length protein (NCBI: AAH09272.1) on stably transfected CHO-K1 or HEK293T cells (human) (UniProt Q13421); experiment: FACS on HEK293T-hMSLN-B8 cells; secondary antibody control 1
# [8] = molecular target: human MSLN full-length protein (NCBI: AAH09272.1) on stably transfected CHO-K1 or HEK293T cells (human) (UniProt Q13421); experiment: FACS on CHO-K1-hMSLN-2C8 cells; secondary antibody control 37
# [9] = molecular target: monkey MSLN full-length protein (NCBI: XP_028696439.1) on HEK293T cells (monkey); experiment: FACS on HEK293T-monkey MSLN cells; antibody 0.0064 nM
# [10] = molecular target: human MSLN full-length protein (NCBI: AAH09272.1) on stably transfected CHO-K1 or HEK293T cells (human) (UniProt Q13421); experiment: FACS on CHO-K1-hMSLN clone 2D11, overlay with secondary antibody only
# [11] = molecular target: monkey MSLN full-length protein (NCBI: XP_028696439.1) on HEK293T cells (monkey); experiment: FACS on HEK293T-monkey MSLN cells; antibody 0.032 nM
# [12] = molecular target: monkey MSLN full-length protein (NCBI: XP_028696439.1) on HEK293T cells (monkey); experiment: FACS on HEK293T-monkey MSLN cells; antibody 100 nM
# [13] = molecular target: monkey MSLN full-length protein (NCBI: XP_028696439.1) on HEK293T cells (monkey); experiment: FACS on HEK293T-monkey MSLN cells; antibody 20 nM
# [14] = molecular target: human MSLN full-length protein (NCBI: AAH09272.1) on stably transfected CHO-K1 or HEK293T cells (human) (UniProt Q13421); experiment: FACS on CHO-K1-hMSLN clone 2C8, overlay with secondary antibody only
# [15] = molecular target: human MSLN full-length protein (NCBI: AAH09272.1) on stably transfected CHO-K1 or HEK293T cells (human) (UniProt Q13421); experiment: FACS on CHO-K1-hMSLN-2C8 cells; antibody 100 nM
# [16] = molecular target: human MSLN full-length protein (NCBI: AAH09272.1) on stably transfected CHO-K1 or HEK293T cells (human) (UniProt Q13421); experiment: FACS on HEK293T-hMSLN-2A4 cells; secondary antibody control 1
# [17] = molecular target: human MSLN full-length protein (NCBI: AAH09272.1) on stably transfected CHO-K1 or HEK293T cells (human) (UniProt Q13421); experiment: FACS on CHO-K1-hMSLN-2D11 cells; secondary antibody control 37
# [18] = molecular target: human MSLN full-length protein (NCBI: AAH09272.1) on stably transfected CHO-K1 or HEK293T cells (human) (UniProt Q13421); experiment: FACS on CHO-K1-hMSLN-2C8 cells; antibody 0.032 nM
# [19] = molecular target: human MSLN full-length protein (NCBI: AAH09272.1) on stably transfected CHO-K1 or HEK293T cells (human) (UniProt Q13421); experiment: FACS on CHO-K1-hMSLN-2C8 cells; antibody 20 nM
# [20] = molecular target: human MSLN full-length protein (NCBI: AAH09272.1) on stably transfected CHO-K1 or HEK293T cells (human) (UniProt Q13421); experiment: FACS on CHO-K1-hMSLN clone 2C5, overlay with secondary antibody only
# [21] = molecular target: human MSLN full-length protein (NCBI: AAH09272.1) on stably transfected CHO-K1 or HEK293T cells (human) (UniProt Q13421); experiment: FACS on HEK293T-hMSLN-2A7 cells; secondary antibody control 1
# [22] = molecular target: human MSLN full-length protein (NCBI: AAH09272.1) on stably transfected CHO-K1 or HEK293T cells (human) (UniProt Q13421); experiment: FACS on CHO-K1-hMSLN-2C8 cells; antibody […]
# [23] = molecular target: human MSLN full-length protein (NCBI: AAH09272.1) on stably transfected CHO-K1 or HEK293T cells (human) (UniProt Q13421); experiment: FACS on CHO-K1-hMSLN-2C8 cells; antibody 0.00128 nM
# [24] = molecular target: monkey MSLN full-length protein (NCBI: XP_028696439.1) on HEK293T cells (monkey); experiment: FACS on HEK293T-monkey MSLN cells; antibody […]
# [25] = molecular target: human MSLN full-length protein (NCBI: AAH09272.1) on stably transfected CHO-K1 or HEK293T cells (human) (UniProt Q13421); experiment: FACS on CHO-K1-hMSLN-2C8 cells; antibody 0.0064 nM
binder,measurement,setting,value
B1,FACS fluorescence intensity,[1],90
same,FACS fluorescence intensity,[2],9000
same,FACS fluorescence intensity,[3],2290
same,FACS fluorescence intensity,[4],85
same,FACS fluorescence intensity,[5],88
same,Mean fluorescence intensity of cells,[6],206000
same,Mean fluorescence intensity of cells,[7],24400
same,Mean fluorescence intensity of cells,[8],234000
same,FACS fluorescence intensity,[9],85
same,percent of cells in the APC-A+ gate,[10],100%
same,FACS fluorescence intensity,[11],85
same,FACS fluorescence intensity,[12],126
same,FACS fluorescence intensity,[13],100
same,percent of cells in the APC-A+ gate,[14],99.4%
same,FACS fluorescence intensity,[15],15300
same,Mean fluorescence intensity of cells,[16],15400
same,Mean fluorescence intensity of cells,[17],218000
same,FACS fluorescence intensity,[18],206
same,FACS fluorescence intensity,[19],15400
same,percent of cells in the APC-A+ gate,[20],100%
same,Mean fluorescence intensity of cells,[21],6580
same,FACS fluorescence intensity,[22],593
same,FACS fluorescence intensity,[23],75
same,FACS fluorescence intensity,[24],86
same,FACS fluorescence intensity,[25],96
